We go through one substance from patent US6372892.

The target of the assay is recombinant human IL-1β (human) (UniProt P01584). Put plainly: cell-based or functional assay.
Chain of UniProt P01584 (P01584 117-269 limits assumed): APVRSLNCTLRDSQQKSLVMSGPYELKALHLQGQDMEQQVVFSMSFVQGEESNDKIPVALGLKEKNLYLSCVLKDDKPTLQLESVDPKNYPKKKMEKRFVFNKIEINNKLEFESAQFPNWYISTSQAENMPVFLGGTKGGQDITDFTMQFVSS

“IL-1 Hy2 (from UniProt Q8WWZ1 1-152) (ligand)”: the IL-1β induced PGE2 production in human fibroblasts (CCD 1098), PGE2 ELISA; IL-1 Hy2 at 1000 fold excess lay in the range of 40 to 60 % inhibition.
